From patent US4885277A, “Anticoagulant therapy” (Oklahoma Medical Research Foundation, priority 1987, dated 1989) come the findings set out here.

For the assay, the system named is endothelial cellular receptors for Factor IX (cultured bovine aortic endothelial cells). Nature of the assay: Competitive binding of [125I]-Factor IX to cultured bovine aortic endothelial cells. As to conditions: cultured bovine aortic endothelial cells, 4-5 hours at 4° C.; mean, SEM less than 20%; read-out: Inhibitory Constant, inhibition of binding of [125I]-Factor IX. On the procedure: The purified peptides were tested for their ability to block the binding of bovine Factor IX and IXa to cultured bovine aortic endothelial cells. Bovine Factor IX and IXa for these studies were prepared and radioiodinated (using Na^125 I and the solid state lactoperoxidase technique) using methods described by Stern, et al. (J. Biol. Chem. 260, pp. 6717-6722 [1985]). Bovine aortic endothelial cells were obtained from the aortae of newborn calves as described by Stern, et al. (Proc. Natl. Acad. Sci. U.S.A., 80, pp. 4119-4123 [1983]). These endothelial cells were grown to confluence (1.3×10^5 cells/cm^2) in culture dishes. Binding assays were carried out by incubating either ^125 I-Factor IX or ^125 I-Factor IXa with endothelial cell monolayers in the presence of varying concentrations of one of the peptides. The buffer used in these experiments was Minimal Essential Medium containing 0.5 mg/ml transferring, and the incubation time was 4-5 hours at 4° C. At the end of the incubation period, the cultures were washed to remove unbound material. Then, specifically bound [^125 I]-Factor IX or [^125 I]-Factor IXa was eluted during exposure to EDTA-containing buffer as described by Stern, et al. (Proc. Natl. Acad. Sci. U.S.A., 80, pp. 4119-4123 [1983].

B1: Factor IX: bovine Factor IX, Vitamin K-dependent plasma glycoprotein, used as competitor (protein, UniProt P00741 26-462, looked up)
Coagulation factor IX: AECTVFLDRENATKILHRPKRYNSGKLEEFVRGNLERECKEEKCSFEEAREVFENTEKTTEFWKQYVDGDQCESNPCLNGGMCKDDINSYECWCQAGFEGTNCELDATCSIKNGRCKQFCKRDTDNKVVCSCTDGYRLAEDQKSCEPAVPFPCGRVSVSHISKKLTRAETIFSNTNYENSSEAEIIWDNVTQSNQSFDEFSRVVGGEDAERGQFPWQVLLHGEIAAFCGGSIVNEKWVVTAAHCIKPGVKITVVAGEHNTEKPEPTEQKRNVIRAIPYHSYNASINKYSHDIALLELDEPLELNSYVTPICIADRDYTNIFLKFGYGYVSGWGKVFNRGRSASILQYLKVPLVDRATCLRSTKFSIYSHMFCAGYHEGGKDSCQGDSGGPHVTEVEGTSFLTGIISWGEECAMKGKYGIYTKVSRYVNWIKEKTKLT
For the molecule B1, the Ki amounted to 3 nM.
